Reference: the nanobody polyreactivity screen of Harvey et al. (2022)

test: yeast display, Sf9 membrane polyspecificity reagent, FACS + sequencing; frameworks hold sequencing errors
Method in brief: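 Nanobodies from a synthetic yeast display library (Saccharomyces cerevisiae BJ5465), induced 36–48 hours with galactose, were stained 1 hour at 4 °C with 10% biotinylated, detergent-solubilized Sf9 membrane reagent, enriched on streptavidin microbeads, then FACS-sorted. Anti-HA (expression) and streptavidin (reagent binding) fluorescence set low and high (top ~1%) gates. Polyreactivity labels come from the gate of origin. Genes were colony-PCR amplified, MiSeq 2 × 250 sequenced and filtered by CDR length.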

Sequence	polyreactivity (PSR sort gate)
QVQLEESGAGLVQAGGSLRLCCAASGNTFSSNAMGLYTQAPGKEMELVAGITKSGGRTYYADSVKGRFTISRDNAQYTVYLHMNSLKPEDSAVFYCNRRAGPFSIQYYYWGQVTQVTVSS	high polyreactivity
QVQLEESGAGLVQAGGSLRLSCAASGITFYYNDMGWYRQAPGKEREMVASISGDGGSTYYADSVKGRFTISRDNAKNTVYLQMNSLKPEDTAVFYCAASAGYYEVLYDYWGQGTQVTVSS	low polyreactivity
QVQLEESGGALVQAGGSLRISCAASGSTFYYNAMGWYRQAPGKERELVAVITLNGGRTSYADSVKGRFTISRDNAKNTVYLQMNSLKPEDSAVYYCAADRYRGYGYWGQGTQVTVSS	low polyreactivity
QVQLEESGGGIVQAGGSLRLSCAASGRTFVTNAMGWYRKAPGKERELVATINWSGGRTHYADSVKGRFTISRDNAKNTVYLQMNSLKPEDTAVYYCAKASSRRYWTIRDGDYWGQGTQVSVSS	low polyreactivity
QVQLEESGGGIVQAGGSLRLSCDASGRIFVQYAIGCYRQEPGKEMELVAAISGSGGRTYYADSVKGSFTISRDTAKNTVYLQMNSLKPEDTAVYYCAARYTTGLSFWKPYYYWGQGTQVTVSS	high polyreactivity
QVQLEESGGGLDQAGGSLRLSCAASAIIFALYARGWYSQARGKHRELVATITYSGGSTNYADSLKGRYTISRDNAKNPVYLLMHSLKPEDTAVYYCAAASVPWGGYYSGQGTQVTVSS	low polyreactivity
QVQLEESGGGLLQAGGSHSLSCAASGSTFYKYGMVWYRQAPGKEREFVAAISGSGDSTYYADSVKGRFTISRDNAKNTVYLHMNRLKPEDTAVYYCNAGPWWYLHEYDYWGQGTQVNVSS	low polyreactivity
QVQLEESGGGLVHAGGILRLSCAASGYTFYYNAMGWYRQAPGKERELVAAISRSRDTTYYADSVKGRFTISRDNAKYTVYLQMYSLKPEDTEVYYCNAVVQVLADFQKYDYWGQGSQVTVSS	low polyreactivity
QVQLEESGGGLVHAGGSLRLSSAASGYTFKYYALACYRQAPGKERELVAAISARGGSTYYADSVKGRFTISRDNAKNTVYLQMNSVKPEDTAVYFCAARSGYGPYRMDYWGQGTQVTVSS	high polyreactivity
QVQLEESGGGLVQAGCSLRLTCAASGSTFYSYPMGWSRQAPGKERELVAAITVSGTSTYYADSVKGRFTISRDNAKNTVYLQMYSVKPEDTAVYYCAADRRTDGHDYWGQGTQVTVSS	high polyreactivity
QVQLEESGGGLVQAGGRIRLSCAASGRIFHGYAMGWYRQAPGKERELVAAISWRGDSTYYADSVKGRFTNSRDNAKNTVYLQMNSLKPEDTAVYYCNDLGENYQFNYWGLGTQVTVSS	low polyreactivity
QVQLEESGGGLVQAGGRLRISCAASGRTFLCYAMGWSRQAPGKERELLAAISKSGGSTYYADSVKGRFTISRDNAKNTVYLQMNSLKPQDTAVYYCAVEVDVYTFSEFYYWGQGTQVTVSS	high polyreactivity
QVQLEESGGGLVQAGGRLRLSCAASGRTITRNAMGWYRQAPGKERELVAAISSRGGSTSYADSVKGRFTISRDNAKNTFYLQMNSLKPEDTAVYYCNKKTAASDYDYWGQGTQVTVSS	high polyreactivity
QVQLEESGGGLVQAGGRLRLSCAASGSILTAYAMGWYRQAPGKERELVAASNFSGDNTYYADSVKGRFTISRDNAKNTVYLQMNSLKPQDTALYYCNADGRYAYVWYDYWGQGTQVTVSS	low polyreactivity
QVQLEESGGGLVQAGGRLRLSCSASGFICGSNAMGWYRQAPGKERELVAAISARGGSTYYADSVKGRFTISRDNAKNPVYLQMNSLKPEDTAVYYCNTGTSGRFLSFGNFDYWGQGTQVTVSS	high polyreactivity
QVQLEESGGGLVQAGGRLRLTCAASGFIFKLYAMGWYRQAPGKERELVAAISGNGGRTYYADSVKGRFTISRDNAKNTVYLQMNSLKPEDTAVDYCAARYVGVQRYYEFDYWGQGTQVTVSS	high polyreactivity

Sequence	polyreactivity (PSR sort gate)
QVQLEESGGGLVQAGGSHRLSCAASGRTFGAYAMGWYLQAPGKEREVVAAITYRGASTYYADSVKGRFTISRDNAMYTVYLQMNSLITEDTAVYSCAAEGSIKYFVGYNWGYNYWGQGSQVTVSS	low polyreactivity
QVQLEESGGGLVQAGGSIRLSCAASGSIFYKYVMGCYRQAPGKERELVAAISRGGGSTYYADSVKGRFTISRDNSKNTVYLQMNSLKPEDTAVYYCNAVVRPRYGHGFDHWGQGTQVTVSS	high polyreactivity
QVQLEESGGGLVQAGGSLRISCAAAGSTFRSNAMGWYRPAPRKERELVAAINSGGSTYYADSVKGRFTISRDNAKNTVYLQMNSLKPEDTAVYYCAARYYTPFGTYRQNIRMYYWGQGTQVTVSS	high polyreactivity
QVQLEESGGGLVQAGGSLRISCAASGFIYRDYDMGWYRQAPGKERELVAAISLSGGSTYYADSVKGRFTISRDNAKNTVYLQMNSLKPEDTAVYYCAAVSAYEGNYWGQGTQVTVSS	high polyreactivity
QVQLEESGGGLVQAGGSLRLCCAASGSTFWAYVMGWYRQAPGKEMELVAAISKSGVRTHYADSVKGRFTISRDNAKNTVYLQMNSRKPEDTAVYYSAAGGVGNLDDYWGQGTQVTVSS	high polyreactivity
QVQLEESGGGLVQAGGSLRLICAASAMGRYRQAPGKERELVAVINSTGGSTYYADSVKGRFTISRDNAKNTVYLQMYSLKPDDTAVYYCARVTRRGPGYTTLYCRYDYWGQGTQVTVSS	low polyreactivity
QVQLEESGGGLVQAGGSLRLICAASGIFFIYAMGWYRQARGKERELVADIDSGGPTYYADSVKGRFTISRDNAKNTVYLQMNRLQPEDTAVYYCAFDYSNVDLYSLLFYESDYWGQGTQVTVSS	low polyreactivity
QVQLEESGGGLVQAGGSLRLICAASGIIFLFYALGWYRQAPGKERELVASITWSGGSTYYADSVKGRFTISRDNAKNTVYLQMNSLKPEDTAVYYCAASVKIISYLVHSEFLGGELDYWGQGTHVTVSS	low polyreactivity
QVQLEESGGGLVQAGGSLRLICAASGIIFRLNAMGWYRQATGQDRELVAAIRRRGGSTYYADSVKGRFTISRDNAKNTVYLQMNSLKPEDTAVYYCNARYLRMRYPYTDEYNYWGQGTQVTVSS	low polyreactivity
QVQLEESGGGLVQAGGSLRLICAASGSTFGDNAMGWSRQAPGKEGEFVAGISTNGGSTYYADSVKGRFTISRDNAKNTFYLQMNSLKPEDIAVYSCAAVNYYDQYGDYYWGQGTQVTVSS	low polyreactivity
QVQLEESGGGLVQAGGSLRLICAASGSTFIYNAMGWYRQAPGKERELVAAISARTGNTYYADSVKGRFTISRDNAKNTVYLQMNSLKPEDTAVYYCARRGFPRGGGPSRYYWYDYWGQGTQVTVSS	high polyreactivity
QVQLEESGGGLVQAGGSLRLSCAAAGLTFDVYAMGWYRPAPGNEMELVAAISSIGGSTYYADSVKGRFTISRDNAKNNVYLQMYSLKPEDTAVYYCSAAISLYSYDYWGQGTQVTVSS	low polyreactivity
QVQLEESGGGLVQAGGSLRLSCAASGFIFLDYAMGWYRQAPGKERELVAAISSRGARTYYADSVKGRFTISRDNAKNTVYLQMNSLKPEDTAVYYCAARGPLDRYGYWGQGTQVTVSS	high polyreactivity
QVQLEESGGGLVQAGGSLRLSCAASGFIFSSNAKGWYRQAPGKERELVAAISSSGGRTYYADSVKGRFTISRDNAKNPVYLQMNSLIPEYTAVYYCNADPRSLGSANDWGQGTQVTVSS	high polyreactivity
QVQLEESGGGLVQAGGSLRLSCAASGFIFSWYAMGWYRQAPGKERELVARISSSGGNTYYADSVKGRFTISRDNAKNTVYLQMNSLKPEDTAVYYCAATRYSLSGYGYWGQGTQVTVSS	high polyreactivity
QVQLEESGGGLVQAGGSLRLSCAASGFTFERNAMGWYRQAPGKERELVAAISWSGGSTYYADSVKGRFTISRDNAKNTVYLQMNSLKPEDTAVYYCAAYQWGYWYGYRMDYWGQGTQVTVSS	high polyreactivity
